In data set [1] the test system is Il2rg ZFN-1 (synthetic construct). The experiment in a line: cell_activity. The conditions noted are these: ZFN-1+ZFN-2 pair with LTVEC versus LTVEC alone, fold increase in targeting efficiency; 6 bp spacer; mouse F1H4 ES cells.
In data set [2] the test system is Il2rg ZFN-2 (synthetic construct). The experiment in a line: cell_activity. As to conditions: ZFN-1+ZFN-2 pair with LTVEC versus LTVEC alone, fold increase in targeting efficiency; 6 bp spacer; mouse F1H4 ES cells.

For “AGCTCCAAGGTCCTC (double strand) [Il2rg exon 1 ZFN-1 half-site (sense strand)]”, the activity in data set [1] came to 4 fold.

Take “GTCTTCATTCGCACT (double strand) [Il2rg exon 1 ZFN-2 half-site (anti-sense strand)]”: in data set [2], the activity was found to be 4 fold.

Source of the values: patent publication US20180037910.
